Source: patent US20210062165A1 (TRUSTEES OF PRINCETON UNIVERSITY, published 2021)

B1: sFUS-FusionRed-PixD fusion protein (other)
chain: MASNDYTQQATQSYGAYPTQPGQGYSQQSSQPYGQQSYSGYSQSTDTSGYGQSSYSSYGQSQNTGYGTQSTPQGYGSTGGYGSSQSSQSSYGQQGGGMVSELIKENMPMKLYMEGTVNNHHFKCTSEGEGKPYEGTQTMRIKVVEGGPLPFAFDILATSFMYGSRTFIKHPPGIPDFFKQSFPEGFTWERVTTYEDGGVLTATQDTSLQDGCLIYNVKVRGVNFPANGPVMQKKTLGWEASTETMYPADGGLEGACDMALKLVGGGHLICNLETTYRSKKPATNLKMPGVYNVDHRLERIKEADDETYVEQHEVAVARYSTGGAGDGGKAATRMSLYRLIYSSQGIPNLQPQDLKDILESSQRNNPANGITGLLCYSKPAFLQVLEGECEQVNETYHRIVQDERHHSPQIIECMPIRRRNFEVWSMQAITVNDLSTEQVKTLVLKYSGFTTLRPSAMDPEQCLNFLLDIAKIYELSDNFFLDL
notes: Expressed inside S. cerevisiae cells (strain YEZ555). sFUS is the first 93 amino acids of the FUS^N domain; The listing entry is DNA, not protein; also called sFUS-FR-PixD; EZ-L767
B2: FUS^N-FusionRed-Cry2 fusion protein (other)
chain: MASASNDYTQQATQSYGAYPTQPGQGYSQQSSQPYGQQSYSGYSQSTDTSGYGQSSYSSYGQSQNTGYGTQSTPQGYGSTGGYGSSQSSQSSYGQQSSYPGYGQQPAPSSTSGSYGSSSQSSSYGQPQSGSYSQQPSYGGQQQSYGQQQSYNPPQGYGQQNQYNSSSGGGGGGGGGGNYGQDQSSMSSGGGSGGGYGNQDQSGGGGSGGYGQQDRGGGGMVSELIKENMPMKLYMEGTVNNHHFKCTSEGEGKPYEGTQTMRIKVVEGGPLPFAFDILATSFMYGSRTFIKHPPGIPDFFKQSFPEGFTWERVTTYEDGGVLTATQDTSLQDGCLIYNVKVRGVNFPANGPVMQKKTLGWEASTETMYPADGGLEGACDMALKLVGGGHLICNLETTYRSKKPATNLKMPGVYNVDHRLERIKEADDETYVEQHEVAVARYSTGGAGDGGKAATRMKMDKKTIVWFRRDLRIEDNPALAAAAHEGSVFPVFIWCPEEEGQFYPGRASRWWMKQSLAHLSQSLKALGSDLTLIKTHNTISAILDCIRVTGATKVVFNHLYDPVSLVRDHTVKEKLVERGISVQSYNGDLLYEPWEIYCEKGKPFTSFNSYWKKCLDMSIESVMLPPPWRLMPITAAAEAIWACSIEELGLENEAEKPSNALLTRAWSPGWSNADKLLNEFIEKQLIDYAKNSKKVVGNSTSLLSPYLHFGEISVRHVFQCARMKQIIWARDKNSEGEESADLFLRGIGLREYSRYICFNFPFTHEQSLLSHLRFFPWDADVDKFKAWRQGRTGYPLVDAGMRELWATGWMHNRIRVIVSSFAVKFLLLPWKWGMKYFWDTLLDADLECDILGWQYISGSIPDGHELDRLDNPALQGAKYDPEGEYIRQWLPELARLPTEWIHHPWDAPLTVLKASGVELGTNYAKPIVDIDTARELLAKAISRTREAQIMIGAAARDPPVATGSGSGSG
notes: Expressed inside S. cerevisiae cells (strains YEZ53, yNS47); The listing entry is DNA, not protein; also called optoDroplets; optoDroplet

Legend:
[1] = biological target: T1, FUS^N-Citrine-PixE fusion protein; assay: microscopy of co-clustering in yeast strain YEZ555, dark against blue light
T1 construct: Expressed inside S. cerevisiae cells (strains YEZ231, YEZ232, YEZ555); The listing entry is DNA, not protein; also called FUS^NPixE; EZ-L498

[2] = biological target: the molecule itself; assay: microscopy of self-clustering in yeast (YEZ53), light against dark
Procedure: Yeast strains were cultured overnight in a 24 well plate covered with foil. SC media was used to avoid the high auto-fluorescence of YPD. The following day, cultures were diluted 1:20 and allowed to grow for 2 hours such that the cells were in exponential phase. Wells of the microscopy plate were coated using 1 mg/mL Concanavalin A (Sigma) dissolved in 20 mM sodium acetate. After washing wells with ddH2O, yeast cultures were transferred and spun down at 1000 rpm for 3 min. All imaging was carried out using a 60X oil immersion objective (NA 1.4) on a Nikon A1 laser scanning confocal microscope. The laser was used at two different wavelengths: 488 nm for activation of Cry2 and 551 nm for visualization of FusionRed. […] Laser settings were 40% intensity for 488 nm and 30% intensity for 561 nm. Exposure times for both wavelengths was 200 ms.

| Binder | binding result [1] | binding result [2] |
| --- | --- | --- |
| B1 | binds | – |
| B2 | – | binds |
